Data as given in US20220387578A1.

Experiments:
[1] = target: H12 HA A/duck/Alberta/60/1976, recombinant (influenza A virus)
[2] = target: H14 HA A/mallard duck/Astrakhan/263/1982, recombinant (influenza A virus)
[3] = target: H5 HA A/Indonesia/05/2005 (H5N1), recombinant (influenza A virus)
[4] = target: H3 HA A/Hong Kong/1/1968 (H3N2), recombinant soluble trimer (influenza A virus) (UniProt Q91MA7)
[5] = target: H15 HA A/shearwater/Western Australia/2576/1979, recombinant (influenza A virus)
[6] = target: H2 HA A/Singapore/1/1957, recombinant soluble trimer (influenza A virus)
[7] = target: H7 HA A/Shanghai/2/2013 (H7N9), recombinant uncleaved trimer (influenza A virus)
[8] = target: H9 HA A/Hong Kong/1073/99, recombinant (influenza A virus)

Substance | EC50 [1] | EC50 relative to wild type rFluA-20 [2] | EC50 relative to wild type rFluA-20 [3] | EC50 [4] | EC50 [5] | EC50 [6] | EC50 relative to wild type rFluA-20 [7] | EC50 relative to wild type rFluA-20 [8] | EC50 [7] | EC50 [8] | EC50 relative to wild type rFluA-20 [1] | EC50 relative to wild type rFluA-20 [5]
rFluA-20 heavy chain mutant C101A (antibody) | 0.09 µg/mL | > 100 fold | > 100 fold | 0.13 µg/mL | 0.11 µg/mL | 0.44 µg/mL | > 100 fold | > 100 fold | – | – | – | –
rFluA-20 light chain mutant N53A (antibody) | 0.03 µg/mL | > 100 fold | > 100 fold | – | 0.06 µg/mL | 0.16 µg/mL | – | – | 0.87 µg/mL | 0.17 µg/mL | – | –
rFluA-20 light chain mutant Q55A (antibody) | – | – | – | – | – | – | – | – | – | – | > 100 fold | > 100 fold
